Data published in patent US11946041B2, “Modification of polypeptides” (BicycleRD Limited, priority 2017, dated 2024).
Entries after “also recorded” stand apart in the source; their conditions may differ. Each block holds one molecule with its values, some of them ahead of it.

Assays:
MT1-MMP hemopexin domain = target: T1, MT1-MMP hemopexin domain (Homo sapiens, UniProt P50281); experiment: MMP-14 FP competition binding between peptide families
T1 construct: Human MMP-14 PEX protein at 71.1 μM monomer
Protocol: FIG. 6 illustrates an analysis of MT-MMP binding ligands. A: MMP-14 FP direct binding in cell-based selections; 1 nM tracer, 60 min data. 17-98-Sar6-k(FI)-and-17-99-Sar6-k(FI)-bind with Kds of 354 nM and 501 nM respectively. B: competition binding with several combinations of peptides, both fluorescein-labelled or native, from soluble and cell based selections.
FIG. 7 illustrates the competition profile between peptide ligands isolated in this example.
• Human MMP-14 PEX protein at 71.1 μM monomer (previously 77.1 μM) (T-017-011), stored in fridge (4/7/14) • Peptides as described in Results section
Method: • Prepare assay buffer: 20 mM HEPES, 150 mM NaCl, 1 mM CaCl2), 0.1% Tween20 (pH 7.6). Buffer was filtered before use to remove precipitate. • Method according to Example 3 with tracer at 1 nM and MMP-14 PEX at concentrations detailed in the graphs • 60 min data analysed • Results are shown in FIG. 6.

CCR4 [1] = target: T2, CCR4 (Homo sapiens, UniProt P51679); experiment: PathHunter eXpress CCR4 CHO-K1 β-Arrestin GPCR Assay, antagonist format with CCL22; type: cell-based
T2 construct: host or cells: CHO-K1
T2 sequence (P51679 1-360): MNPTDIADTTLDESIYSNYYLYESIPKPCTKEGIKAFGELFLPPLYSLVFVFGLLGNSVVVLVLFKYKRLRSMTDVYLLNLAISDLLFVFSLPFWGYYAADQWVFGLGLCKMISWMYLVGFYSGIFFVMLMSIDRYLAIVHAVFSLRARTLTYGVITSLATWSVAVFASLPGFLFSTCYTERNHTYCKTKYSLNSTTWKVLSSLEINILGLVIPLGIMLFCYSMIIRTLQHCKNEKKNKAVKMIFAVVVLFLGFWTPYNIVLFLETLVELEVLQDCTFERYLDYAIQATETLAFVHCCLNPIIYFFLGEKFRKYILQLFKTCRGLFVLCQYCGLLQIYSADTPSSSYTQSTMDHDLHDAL
Protocol: (§1) The aim of the present experiment was to analyze if if these peptides are functional using a Discoverx Assay, the Beta-Arrestin recruitment assay, to identify agonism or antagonism in the selected peptides.
(§2) Standard protocols used: • PathHunter® eXpress CCR4 CHO-K1 β-Arrestin GPCR Assay. 100 dp (1×96-well)
(§3) The experiment was carried using the manufacturer instructions.
We therefore used the assay in an antagonist format, using 10 nM CCL22.
We repeated this experiment lowering the concentration of CCL22 from 10 nM to 1 nM to show a full inhibition curve.

CCR4 [2] = target: T2, CCR4; experiment: PathHunter eXpress CCR4 CHO-K1 β-Arrestin GPCR Assay, agonist format; type: cell-based
Protocol: as §1, §2, §3
The concentration was increased to test for response at high concentration.

Molecule: CYNEFGCEDFYDIC [Peptide 17-69-07]
- binding site on MT1-MMP (MT1-MMP hemopexin domain): binds to a neutral binding site; also recorded: binding site is distinct from the 17-88/17-98 binding site
- competition with other peptide families (MT1-MMP hemopexin domain): do not cross compete

B1: CCL22: the natural ligand of CCR4; CCL22 Discoverx (Cat no #92-1006) (protein, UniProt O00626 25-93, looked up)
C-C motif chemokine 22: GPYGANMEDSVCCRDYVRYRLPLRVVKHFYWTSDSCPRPGVVLLTFRDKEICADPRVPWVKMILNKLSQ
- Raw Data (CCR4 [1]; 1 nM CCL22, 0.001 uM): 189754
- Raw Data (CCR4 [1]; 1 nM CCL22, 0.003 uM): 206356
- Raw Data (CCR4 [1]; 1 nM CCL22, 0.008 uM): 204398
- Raw Data (CCR4 [1]; 1 nM CCL22, 0.023 uM): 218834
- Raw Data (CCR4 [1]; 1 nM CCL22, 0.1 uM): 225758
- Raw Data (CCR4 [1]; 1 nM CCL22, 0.2 uM): 245828
- Raw Data (CCR4 [1]; 1 nM CCL22, 0.6 uM): 321207
- Raw Data (CCR4 [1]; 1 nM CCL22, 1.9 uM): 425613
- Raw Data (CCR4 [1]; 1 nM CCL22, 5.6 uM): 422771
- Raw Data (CCR4 [1]; 1 nM CCL22, 16.7 uM): 433500
- Raw Data (CCR4 [1]; 1 nM CCL22, 50 uM): 508067
- Raw Data (CCR4 [1]; 10 nM CCL22, 0.001 uM): 178148
- Raw Data (CCR4 [1]; 10 nM CCL22, 0.003 uM): 150444
- Raw Data (CCR4 [1]; 10 nM CCL22, 0.008 uM): 136281
- Raw Data (CCR4 [1]; 10 nM CCL22, 0.023 uM): 131693
- Raw Data (CCR4 [1]; 10 nM CCL22, 0.1 uM): 151947
- Raw Data (CCR4 [1]; 10 nM CCL22, 0.2 uM): 169306
- Raw Data (CCR4 [1]; 10 nM CCL22, 0.6 uM): 173881
- Raw Data (CCR4 [1]; 10 nM CCL22, 1.9 uM): 175875
- Raw Data (CCR4 [1]; 10 nM CCL22, 5.6 uM): 212050
- Raw Data (CCR4 [1]; 10 nM CCL22, 16.7 uM): 245795
- Raw Data (CCR4 [1]; 10 nM CCL22, 50 uM): 223579
- EC50 (CCR4 [2]): 1.65 nM
- Raw Data (CCR4 [2]; 0.006 nM): 37757
- Raw Data (CCR4 [2]; 0.02 nM): 41715
- Raw Data (CCR4 [2]; 0.06 nM): 57093
- Raw Data (CCR4 [2]; 0.17 nM): 84488
- Raw Data (CCR4 [2]; 0.51 nM): 111988
- Raw Data (CCR4 [2]; 1.5 nM): 135687
- Raw Data (CCR4 [2]; 4.6 nM): 172692
- Raw Data (CCR4 [2]; 13.9 nM): 209362
- Raw Data (CCR4 [2]; 41.7 nM): 230085
- Raw Data (CCR4 [2]; 125 nM): 249665
- Raw Data (CCR4 [2]; 375 nM): 234176
- Raw Data (CCR4 [2]; high concentration, 0.001 uM): 16366
- Raw Data (CCR4 [2]; high concentration, 0.003 uM): 23261
- Raw Data (CCR4 [2]; high concentration, 0.008 uM): 29739
- Raw Data (CCR4 [2]; high concentration, 0.023 uM): 47935
- Raw Data (CCR4 [2]; high concentration, 0.1 uM): 67642
- Raw Data (CCR4 [2]; high concentration, 0.2 uM): 88410
- Raw Data (CCR4 [2]; high concentration, 0.6 uM): 101987
- Raw Data (CCR4 [2]; high concentration, 1.9 uM): 118822
- Raw Data (CCR4 [2]; high concentration, 5.6 uM): 118686
- Raw Data (CCR4 [2]; high concentration, 16.7 uM): 130064
- Raw Data (CCR4 [2]; high concentration, 50 uM): 122799

Next, values leading:

- binding site on MT1-MMP (MT1-MMP hemopexin domain): binds to the collagen binding site
- competition with other peptide families (MT1-MMP hemopexin domain): do not cross compete
Molecule: CPYSWETCLFGDYRC [Peptide 17-88, peptide ligand family from soluble selections against MT1-MMP hemopexin domain]

- competition with other peptide families (MT1-MMP hemopexin domain): competes with all the other families
Molecule: CQNRFPNCPINGFFC [Peptide 17-99]
